Laboratory results reported in patent publication US20030199671A1, “Binding molecules for Fc-region polypeptides” (priority 2001, published 2003).
Read-outs that look alike come from different tables or passages of the source. Each block holds one substance with its values, some of them ahead of it. code X = not defined here; code Z = not defined here

What was measured:
[1] = biological target: IgG4 (Homo sapiens, UniProt P01861); type: binding; parameters: all human subtypes derived from myeloma patients; purchased Calbiochem 400126; host or cells: myeloma patients; details: for Batch Binding (% Capture of Total Load) hIgG4: Table 18, average ligand density 1.9 μmole/ml
Protocol: (§1) In addition, the following targets, all unfractionated IgGs, were also evaluated with selected immobilized peptides for species specificity characterization in a similar format: human IgG, goat IgG, bovine IgG, and mouse IgG (Sigma, product nos. I4506, I5256, I5506, and I15381, respectively). In addition, 10 μl aliquots of hydrolyzed NHS-activated Sepharose 4 Fast Flow (Amersham Pharmacia Biotech, product no. 17-0906-01) and immobilized recombinant Protein A (RepliGen Corp., product no. IPA-400) were also assayed as negative and positive controls. IgG targets were diluted into 10 mM phosphate buffer containing 150 mM NaCl and 0.01% Tween 20, pH 7.2 (PBST) or 50 mM Tris buffer containing, 150 mM NaCl and 0.01% Tween-20, pH 7.5 (TBST). Batch (static) binding and elution studies were conducted in a 96-well assay filterplate (Millipore MultiScreen-HV, with 0.45 μm Durapore membrane, product no. MAHVN4510). The target was allowed to incubate with the resin for 1-1.5 hours with shaking at room temperature. Unbound target was collected by centrifugation of samples from the assay plate directly into a low-UV absorbing 96-well collection plate (Costar, product no. 3635 or Greiner, product no. 655801). The unbound target was then quantitated by reading the absorbance at 280 nm (normalized to 1 cm pathlength, 1.4 mg/ml A280 extinction coefficient) of the collection plate on a microplate spectrophotometer (Molecular Devices Corp., SPECTRAmax PLUS) against a buffer blank.
(§2) The percentage bound target was determined by subtracting the mass determined as unbound from the corresponding condition's control values (control non-filtered added directly to the collection plate and/or the negative control). The assay plate was washed (3×) with 200 μl of binding buffer by vacuum filtration followed by addition of 100 μl of various elution conditions (e.g.: 0.1 M sodium bicarbonate buffer, pH 8.5 and/or 0.1 M sodium citrate buffer, pH 4.0). After a 30-60 minute incubation with shaking at room temperature, the eluted target was collected by centrifugation of the assay plate into another collection plate and quantitated in a similar manner. Percent elution of total load was then determined to characterize elution recovery efficiency under various conditions. The assay plate was then washed (3×) with 200 μl of binding buffer by vacuum filtration followed by addition of a resin cleaning condition (e.g., 0.1M CAPS buffer (3-[Cyclohexylamino]-1-propane-sulfonic acid), pH 11.5, to regenerate the resin for re-use. Percentage mass balance determination was calculated to be 90-100% on average.

[2] = biological target: IgG3 (Homo sapiens, UniProt P01860); type: binding; parameters: all human subtypes derived from myeloma patients; purchased Calbiochem 400124; host or cells: myeloma patients; details: for Batch Binding (% Capture of Total Load) hIgG3: Table 18, average ligand density 1.9 μmole/ml
Protocol: as §1, §2

[3] = biological target: T1, human IgG2 (Homo sapiens, UniProt P01859); type: binding; details: for Batch Binding (% Capture of Total Load) hIgG2: Table 18, average ligand density 1.9 μmole/ml
T1 construct: all human subtypes derived from myeloma patients; purchased Calbiochem 400122; host or cells: myeloma patients
Protocol: as §1, §2

[4] = test system: bovine IgG; type: binding
Protocol: as §1, §2

[5] = test system: mouse IgG; type: binding
Protocol: as §1, §2

[6] = biological target: T2, human IgG1 (Homo sapiens, UniProt P01857); type: binding; details: for Batch Binding (% Capture of Total Load) hIgG1: Table 18, average ligand density 1.9 μmole/ml
T2 construct: all human subtypes derived from myeloma patients; purchased Calbiochem 400120; host or cells: myeloma patients
Protocol: as §1, §2

[7] = test system: goat IgG; type: binding
Protocol: as §1, §2

[8] = test system: human IgG; type: binding; details: for Batch Binding (% Capture of Total Load) hIgG: Table 18, average ligand density 1.9 μmole/ml
Protocol: as §1, §2

[9] = test system: human IgG; assay: Static (filterplate) binding capacity; details: 25 mg human IgG applied per ml resin
Protocol: These media were used to determine the effect of ligand density on human IgG binding capacity in both static (filterplate) and dynamic (mini-column) modes with commercial immobilized recombinant Protein A (Repligen, IPA400) at a single density as control. Actual ligand densities obtained ranged from 0.17 to 3.2 μmole/ml media as confirmed by quantitative amino acid analysis.
After incubation of the samples, with shaking, at room temperature for one hour, the supernatant liquid from each well, containing unbound IgG, was collected by centrifugation into the cognate well of a collection plate. The assay plate was washed three times with PBST (200 μl/wash) and bound IgG was eluted from the media samples by incubation for 30-60 minutes at room temperature in 100 μl Elution Buffer (100 mM CAPS, pH 11.5). Eluates were collected by centrifugation for analysis. Protein concentrations were determined from A280 measurements and plotted as a function of mg human IgG bound per ml resin vs. mg human IgG applied per ml resin.
The amount of IgG captured (estimated from IgG recovered in the elution step) by the various media is dependent upon both the IgG concentration and the ligand density. […] Under these static conditions, where both ligand and target concentrations are close to KD values, equilibrium binding is established and total capacities cannot be accurately determined. However, over the IgG range of 0 to 25 mg IgG applied per ml resin (0 to 2.5 mg/ml target added to 10 μl of resin), capture of IgG is linear. Beyond this point, up to a level of 200 mg IgG applied per ml resin, saturation becomes more pronounced.

[10] = test system: human IgG; assay: Dynamic (mini-column) binding capacity; details: Table 18; total dynamic capacity; average ligand density 1.9 μmole/ml
Protocol: These media were used to determine the effect of ligand density on human IgG binding capacity in both static (filterplate) and dynamic (mini-column) modes with commercial immobilized recombinant Protein A (Repligen, IPA400) at a single density as control.
The IgG solution was loaded onto the column at a flow rate of 0.2 ml/minute (170 cm/hr). […] At the end of the loading period, the column was washed with PBS until the absorbance at 280 nm of the column eluant returned to baseline. […] Neutralizing the pH of the eluted fractions was unnecessary since the total IgG eluted was determined by total protein absorbance at 280 nm.
To establish total media capacities, IgG was loaded onto the columns until the absorbances of the column load and flow through streams were identical (loading to full capacity). After washing the column to baseline, bound IgG was eluted and the total amount captured from this elution fraction determined. The total capacity of the media (mg IgG/ml media) as total IgG captured divided by the column bed volume was calculated.
Additionally, column capacities at 10% breakthrough were calculated from the online A280 measurements of column flowthrough streams. The A280 curves obtained for the column of interest and for an equivalent “blank” column containing hydrolyzed Sepharose FF 4 media were aligned. The difference in areas between these curves (for a retained and non-retained target) from the time of injection to the time at which the A280 value for the column of interest had risen to 10% of the maximum A280 absorbance (100%) obtained for the load solution at 100% IgG capture saturation (10% breakthrough) was graphically integrated. A standard curve was used to relate the integrated area to mg IgG bound and capacity calculated as total IgG bound divided by column bed volume.

[11] = Table 9, immobilized peptide, 5.0 mg/ml resin load
[12] = Table 13, average ligand density 1.8 μM/ml
[13] = Table 14, average ligand density 1.8 μM/ml

T1 sequence (P01859 1-326 isoform P01859-1): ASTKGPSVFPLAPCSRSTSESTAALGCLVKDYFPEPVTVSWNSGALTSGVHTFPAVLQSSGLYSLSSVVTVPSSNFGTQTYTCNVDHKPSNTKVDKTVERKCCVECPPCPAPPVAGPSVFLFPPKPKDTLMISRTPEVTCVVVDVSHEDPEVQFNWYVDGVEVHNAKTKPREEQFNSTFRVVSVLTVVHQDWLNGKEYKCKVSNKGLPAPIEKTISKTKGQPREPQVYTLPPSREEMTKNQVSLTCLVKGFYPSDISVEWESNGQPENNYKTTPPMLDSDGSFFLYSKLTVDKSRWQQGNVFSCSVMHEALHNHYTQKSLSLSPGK
T2 sequence (P01857 1-330 isoform P01857-1): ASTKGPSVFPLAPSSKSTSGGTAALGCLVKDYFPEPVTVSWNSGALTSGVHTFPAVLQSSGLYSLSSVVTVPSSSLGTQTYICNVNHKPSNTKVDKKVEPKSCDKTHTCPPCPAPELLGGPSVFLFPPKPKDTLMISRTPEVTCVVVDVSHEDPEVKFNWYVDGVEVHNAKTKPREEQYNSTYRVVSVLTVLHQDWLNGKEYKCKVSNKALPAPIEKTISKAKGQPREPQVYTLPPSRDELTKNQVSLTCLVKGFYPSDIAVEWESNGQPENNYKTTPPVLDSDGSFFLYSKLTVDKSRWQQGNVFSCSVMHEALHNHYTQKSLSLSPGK
IgG3, sequence (P01860 1-377 isoform P01860-1): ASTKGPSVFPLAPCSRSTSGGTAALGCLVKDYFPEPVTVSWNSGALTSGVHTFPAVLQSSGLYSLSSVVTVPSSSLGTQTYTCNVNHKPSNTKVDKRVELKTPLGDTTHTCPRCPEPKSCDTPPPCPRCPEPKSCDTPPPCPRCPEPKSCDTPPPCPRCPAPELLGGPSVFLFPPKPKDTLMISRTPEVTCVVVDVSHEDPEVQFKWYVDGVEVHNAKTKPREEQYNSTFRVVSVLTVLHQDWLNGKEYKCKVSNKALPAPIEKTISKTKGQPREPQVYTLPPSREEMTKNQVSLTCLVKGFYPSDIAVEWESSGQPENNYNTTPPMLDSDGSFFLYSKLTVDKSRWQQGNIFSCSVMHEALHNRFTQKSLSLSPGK
IgG4, sequence (P01861 1-327 isoform P01861-1): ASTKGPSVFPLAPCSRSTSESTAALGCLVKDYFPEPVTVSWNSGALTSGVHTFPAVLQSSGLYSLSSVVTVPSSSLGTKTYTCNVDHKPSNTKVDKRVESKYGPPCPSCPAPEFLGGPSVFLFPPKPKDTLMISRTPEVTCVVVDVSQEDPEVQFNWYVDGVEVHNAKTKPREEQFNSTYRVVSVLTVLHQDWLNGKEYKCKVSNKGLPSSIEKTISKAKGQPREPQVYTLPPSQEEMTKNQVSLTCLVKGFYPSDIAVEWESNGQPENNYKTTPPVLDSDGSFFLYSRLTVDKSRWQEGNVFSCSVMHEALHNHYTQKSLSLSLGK

Substance: Ac-GDNPMCWKKSWWEDAYCINHGTPGPEGGGK-NH2 (not fully specified (bridges); printed as Ac-GDNPMCWKKSWWEDAYCINHGTPGPEGGGK-NH2; cysteine pairing not given here) [DX596]
hIgG4 elution pH 2.5 (% of Total Load) ([1]; Table 13): 44%
hIgG4 elution pH 3.5 (% of Total Load) ([1]; Table 13): 61%
hIgG4 elution pH 4.5 (% of Total Load) ([1]; Table 13): 17%
hIgG4 elution pH 5.5 (% of Total Load) ([1]; Table 13): 2%
hIgG4 elution pH 9.0 (% of Total Load) ([1]; Table 13): 55%
hIgG4 elution pH 9.5 (% of Total Load) ([1]; Table 13): 67%
hIgG4 Bound (% of Total Load) [1, 12]: 65%
hIgG3 elution pH 2.5 (% of Total Load) ([2]; Table 13): 0%
hIgG3 elution pH 3.5 (% of Total Load) ([2]; Table 13): 0%
hIgG3 elution pH 4.5 (% of Total Load) ([2]; Table 13): 0%
hIgG3 elution pH 5.5 (% of Total Load) ([2]; Table 13): 0%
hIgG3 elution pH 9.0 (% of Total Load) ([2]; Table 13): 0%
hIgG3 elution pH 9.5 (% of Total Load) ([2]; Table 13): 0%
hIgG3 Bound (% of Total Load) [2, 12]: 0%
hIgG2 elution pH 2.5 (% of Total Load) ([3]; Table 13): 71%
hIgG2 elution pH 3.5 (% of Total Load) ([3]; Table 13): 92%
hIgG2 elution pH 4.5 (% of Total Load) ([3]; Table 13): 44%
hIgG2 elution pH 5.5 (% of Total Load) ([3]; Table 13): 3%
hIgG2 elution pH 9.0 (% of Total Load) ([3]; Table 13): 58%
hIgG2 elution pH 9.5 (% of Total Load) ([3]; Table 13): 64%
hIgG2 Bound (% of Total Load) [3, 12]: 81%
% IgG Capture - Batch Binding, Bovine IgG [4, 13]: 5%
% IgG Capture - Batch Binding, Mouse IgG [5, 13]: 5%
hIgG1 elution pH 2.5 (% of Total Load) ([6]; Table 13): 66%
hIgG1 elution pH 3.5 (% of Total Load) ([6]; Table 13): 78%
hIgG1 elution pH 4.5 (% of Total Load) ([6]; Table 13): 61%
hIgG1 elution pH 5.5 (% of Total Load) ([6]; Table 13): 3%
hIgG1 elution pH 9.0 (% of Total Load) ([6]; Table 13): 62%
hIgG1 elution pH 9.5 (% of Total Load) ([6]; Table 13): 58%
hIgG1 Bound (% of Total Load) [6, 12]: 87%
% IgG Capture - Batch Binding, Goat IgG [7, 13]: 8%
% IgG Capture - Batch Binding, Human IgG [8, 13]: 72%

Substance: Ac-GDNPMCWRAHWWEDAYCINHEPGPEGGGK-NH2 (not fully specified (bridges); printed as Ac-GDNPMCWRAHWWEDAYCINHEPGPEGGGK-NH2; cysteine pairing not given here) [DX1072]
hIgG4 elution pH 3.0 (% of Total Load) ([1]; Table 13): 11%
hIgG1 elution pH 3.0 (% of Total Load) ([6]; Table 13): 27%
% IgG Capture - Batch Binding, Goat IgG [7, 13]: 4%
% IgG Capture - Batch Binding, Human IgG [8, 13]: 49%

Substance: Ac-GDNPMCWRASWWEDAYCINHEPGPEGGGK-NH2 (not fully specified (bridges); printed as Ac-GDNPMCWRASWWEDAYCINHEPGPEGGGK-NH2; cysteine pairing not given here) [DX1071]
hIgG4 elution pH 3.0 (% of Total Load) ([1]; Table 13): 5%
% IgG Capture - Batch Binding, Mouse IgG [5, 13]: 8%
hIgG1 elution pH 3.0 (% of Total Load) ([6]; Table 13): 4%
% IgG Capture - Batch Binding, Goat IgG [7, 13]: 3%
% IgG Capture - Batch Binding, Human IgG [8, 13]: 45%

The remaining lines, values ahead:

% IgG Capture - Batch Binding, Human IgG4 [1, 11]: 1%
% IgG Capture - Batch Binding, Human IgG3 [2, 11]: 5%
% IgG Capture - Batch Binding, Human IgG2 [3, 11]: 14%
% IgG Capture - Batch Binding, Bovine IgG ([4]; Table 11, unfractionated IgG): 0%
% IgG Capture - Batch Binding, Mouse IgG ([5]; Table 11, unfractionated IgG): 4%
% IgG Capture - Batch Binding, Human IgG1 [6, 11]: 6%
% IgG Capture - Batch Binding, Goat IgG ([7]; Table 11, unfractionated IgG): 0%
% IgG Capture - Batch Binding, Human IgG ([8]; Table 11, unfractionated IgG): 4%
Substance: Ac-AGPVDCKHHFWWCYWNGTPGPEGGGK-NH2 (not fully specified (bridges); printed as Ac-AGPVDCKHHFWWCYWNGTPGPEGGGK-NH2; cysteine pairing not given here) [DX251]

Decrease in apparent relative static capacity compared to DX249, DX877 and DX878 [9]: ~2 fold
Dynamic Cap. [10]: 5 mg/mL
Batch Binding (% Capture of Total Load) hIgG4 [1]: 35%
Batch Binding (% Capture of Total Load) hIgG3 [2]: 7%
Batch Binding (% Capture of Total Load) hIgG2 [3]: 54%
Batch Binding (% Capture of Total Load) hIgG1 [6]: 65%
Batch Binding (% Capture of Total Load) hIgG [8]: 49%
Substance: Ac-GDDHMCVYTTWGELIWCDNH-X-NH2 (Ac-GDDHMCVYTTWGELIWCDNH-{code X-NH2}; not fully specified (bridges); printed as Ac-GDDHMCVYTTWGELIWCDNH-X-NH2; cysteine pairing not given here; reading uncertain) [DX907]

Decrease in apparent relative static capacity compared to DX249, DX877 and DX878 [9]: ~2 fold
Batch Binding (% Capture of Total Load) hIgG4 [1]: 25%
Batch Binding (% Capture of Total Load) hIgG3 [2]: 6%
Batch Binding (% Capture of Total Load) hIgG2 [3]: 46%
Batch Binding (% Capture of Total Load) hIgG1 [6]: 58%
Batch Binding (% Capture of Total Load) hIgG [8]: 43%
Substance: Ac-GDDHMCVYTTWGELIWCDNH-X-Z-X-NH2 (Ac-GDDHMCVYTTWGELIWCDNH-{code X-code Z-code X-NH2}; not fully specified (bridges); printed as Ac-GDDHMCVYTTWGELIWCDNH-X-Z-X-NH2; cysteine pairing not given here; reading uncertain) [DX911]

Static Cap. ([9]; Table 18, average ligand density 1.9 μmole/ml): 20 mg/mL
Dynamic Cap. [10]: 8 mg/mL
Batch Binding (% Capture of Total Load) hIgG [8]: 61%
Substance: Ac-GDDHMCVYTTWGELIWCDNHEPGPEG-X-NH2 (Ac-GDDHMCVYTTWGELIWCDNHEPGPEG-{code X-NH2}; not fully specified (bridges); printed as Ac-GDDHMCVYTTWGELIWCDNHEPGPEG-X-NH2; cysteine pairing not given here; reading uncertain) [DX877]
